What is called pKd is the negative decadic logarithm of the Kd, by convention in mol/L. Lower therefore signals a high Kd.

The target of one assay is HLA-B*15:01. Description: IEDB peptide-MHC binding, purified MHC/direct/fluorescence; filed as Kd, often an IC50 or EC50 that approximates it; ≥ and ≤ were set here for values at or beyond the usual limits of such assays.
A further assay has as its target HLA-B*58:01. The assay is described as above.
For a further assay, the target named is HLA-A*01:01. The assay is described as above.
The next assay has as its target HLA-B*40:01. The assay is described as above.
A further assay deals with HLA-B*27:05. The assay is described as above.
For a further assay, the target named is HLA-B*48:01. The assay is described as above.
Another assay deals with HLA-A*69:01. The assay is described as above.
In another assay the target is HLA-B*07:02. The description is as above.
The target of another assay is HLA-B*57:01. Described as above.
For another assay, the target named is HLA-A*02:01. Described as above.
The next assay deals with HLA-A*31:01. The assay is described as above.
A further assay addresses HLA-B*44:02. The assay is described as above.
For another assay, the target named is HLA-A*11:01. The assay is described as above.
In a further assay the target is HLA-A*03:01. Described as above.
In assay [1] the target is HLA-B*08:01. The assay is described as above. The conditions noted are these: source organism: Coxiella burnetii Q321.
For assay [2], the target named is HLA-B*39:01. The description is as above.
Another assay deals with HLA-B*15:09. Description: IEDB peptide-MHC binding, purified MHC/competitive/fluorescence; filed as Kd, often an IC50 or EC50 that approximates it; ≥ and ≤ were set here for values at or beyond the usual limits of such assays.
Assay [3] has as its target HLA-A*68:02. The description is as above. The following applies: source organism: Coxiella burnetii RSA 331.
Another assay concerns the target HLA-B*35:01. Described as above. The following applies: source organism: Coxiella burnetii RSA 331.
Assay [4] deals with HLA-B*15:17. The description is as above. The following applies: source organism: Coxiella burnetii RSA 331.
The target of another assay is HLA-B*18:01. Put plainly: IEDB peptide-MHC binding, purified MHC/direct/fluorescence; filed as Kd, often an IC50 or EC50 that approximates it; ≥ and ≤ were set here for values at or beyond the usual limits of such assays.
The target of the next assay is HLA-A*26:01. The assay is described as above.
The target of the next assay is HLA-A*02:03. The assay is described as above.
Another assay addresses HLA-B*46:01. The assay is described as above.
The target of the next assay is HLA-A*24:03. The assay is described as above.
Another assay addresses HLA-A*02:11. Described as above.
A further assay has as its target HLA-B*51:01. The assay is described as above.
The target in the next assay is HLA-A*02:19. The assay is described as above.
The next assay concerns the target HLA-B*27:03. The description is as above.
The target in the next assay is HLA-A*02:12. The description is as above.
For assay [5], the target named is HLA-A*68:02. Described as above.
Assay [6] deals with HLA-B*15:17. The description is as above.
The target in assay [7] is HLA-B*08:01. Description: IEDB peptide-MHC binding, purified MHC/competitive/fluorescence; filed as Kd, often an IC50 or EC50 that approximates it; ≥ and ≤ were set here for values at or beyond the usual limits of such assays. The following applies: source organism: Brucella canis ATCC 23365.
Assay [8] deals with HLA-B*39:01. The description is as above. The following applies: source organism: Brucella canis ATCC 23365.
Another assay concerns the target HLA-B*73:01. The assay is described as above. The conditions noted are these: source organism: Francisella tularensis subsp. tularensis FSC198.
For a further assay, the target named is HLA-A*29:02. Put plainly: IEDB peptide-MHC binding, purified MHC/direct/fluorescence; filed as Kd, often an IC50 or EC50 that approximates it; ≥ and ≤ were set here for values at or beyond the usual limits of such assays. The following applies: source organism: Vibrio vulnificus YJ016.
In another assay the target is HLA-A*02:16. The assay is described as above. The following applies: source organism: Vibrio vulnificus YJ016.
Setting [9] is: source organism: Coxiella burnetii.
Where [10] appears, read: source organism: Yersinia pestis CA88-4125.
[11] abbreviates: source organism: Brucella abortus 2308.
The mark [12] stands for this setting: source organism: Giardia lamblia ATCC 50803.
Where [13] appears, read: source organism: Vibrio vulnificus YJ016.

pKd: −log10 of the molar value.

In the case of HEGDIVPLF, the pKd was 4.82 with HLA-B*15:01 (setting [9]); no more than 4.70 with HLA-B*58:01 (setting [9]); no more than 4.70 with HLA-A*01:01 (setting [9]); 6.51 in the assay with HLA-B*40:01 (setting [9]); no more than 4.70 with HLA-B*27:05 (setting [9]); no more than 4.70 with HLA-B*48:01 (setting [9]). For the same sequence, the pKd with HLA-A*69:01 (setting [9]) is no more than 4.70; in the assay with HLA-B*07:02 (setting [9]), no more than 4.70; with HLA-B*57:01 (setting [9]), no more than 4.70; in the assay with HLA-A*02:01 (setting [9]), no more than 4.70; with HLA-A*31:01 (setting [9]), no more than 4.70; in the assay with HLA-B*44:02 (setting [9]), 5.22. Further, the pKd with HLA-A*11:01 (setting [9]), with HLA-A*03:01 (setting [9]), with HLA-B*08:01 [1], with HLA-B*39:01 [2] (source organism: Coxiella burnetii Q321), in the assay with HLA-B*15:09 (source organism: Coxiella burnetii RSA 331) and with HLA-A*68:02 [3] was no more than 4.70 throughout. For the same sequence, the pKd with HLA-B*35:01 was 6.74; with HLA-B*15:17 [4] it was 6.19.
In the case of LPEAYQWHI, the pKd with HLA-B*15:01 (setting [10]), in the assay with HLA-B*18:01 (setting [10]), with HLA-A*26:01 (setting [10]), with HLA-A*02:03 (setting [10]), with HLA-B*46:01 (setting [10]) and with HLA-A*24:03 (setting [10]) was no more than 4.70 in each case. Besides, the pKd with HLA-A*02:11 (setting [10]) is no more than 4.70; in the assay with HLA-B*57:01 (setting [10]) it was no more than 4.70; in the assay with HLA-B*51:01 (setting [10]), 6.32; with HLA-A*02:19 (setting [10]), no more than 4.70; with HLA-B*27:03 (setting [10]), no more than 4.70; with HLA-A*03:01 (setting [10]), no more than 4.70. In addition, the pKd in the assay with HLA-B*39:01 [2] (setting [10]) and in the assay with HLA-A*02:12 (setting [10]) was no more than 4.70 in each case.
As to IEVKFHPIL, the pKd in the assay with HLA-B*15:01 (setting [11]) is no more than 4.70; in the assay with HLA-B*18:01 (setting [11]), 8.22; in the assay with HLA-A*26:01 (source organism: Brucella suis 1330), no more than 4.70; in the assay with HLA-B*58:01 (setting [11]), no more than 4.70; with HLA-A*01:01 (setting [11]), no more than 4.70; with HLA-B*40:01 (setting [11]), 7.89. The pKd with HLA-B*27:05 (setting [11]) is no more than 4.70; in the assay with HLA-B*48:01 (setting [11]), 6.27; in the assay with HLA-A*69:01 (setting [11]), no more than 4.70; with HLA-A*68:02 [5] (setting [11]), no more than 4.70; with HLA-B*07:02 (setting [11]), no more than 4.70; with HLA-B*15:17 [6] (setting [11]) it was no more than 4.70. For the same sequence, the pKd with HLA-B*57:01 (setting [11]), with HLA-A*02:01 (setting [11]), with HLA-A*31:01 (setting [11]), in the assay with HLA-B*44:02 (setting [11]), with HLA-A*11:01 (setting [11]) and with HLA-A*03:01 (setting [11]) was no more than 4.70 throughout. Also, the results for the pKd with HLA-B*15:09 (source organism: Brucella canis ATCC 23365), with HLA-B*08:01 [7] and in the assay with HLA-B*39:01 [8] were 7.06, 6.09 and 5.97, respectively.
Regarding YRAKVKPWA, the pKd in the assay with HLA-B*73:01 was 5.35.
For VLLISDPGL, the negative-log Kd (pKd) with HLA-B*15:01 (setting [12]), with HLA-B*18:01 (setting [12]), with HLA-A*26:01 (setting [12]), with HLA-A*02:03 (setting [12]), with HLA-B*46:01 (setting [12]) and in the assay with HLA-A*24:03 (setting [12]) was no more than 4.70 each time. In addition, the pKd in the assay with HLA-A*69:01 (setting [12]) was no more than 4.70; with HLA-A*68:02 [5] (setting [12]), no more than 4.70; in the assay with HLA-A*02:11 (setting [12]) it was no more than 4.70; with HLA-B*15:17 [6] (setting [12]) it was 6.60; with HLA-B*57:01 (setting [12]) it was no more than 4.70; with HLA-B*27:03 (setting [12]), no more than 4.70. The pKd in the assay with HLA-A*03:01 (setting [12]), with HLA-B*39:01 [2] (setting [12]) and with HLA-A*02:12 (setting [12]) was no more than 4.70 in each case.
On to MKYVWPPIM, for which the pKd in the assay with HLA-B*15:01 (setting [13]), with HLA-B*18:01 (setting [13]), with HLA-A*26:01 (setting [13]), in the assay with HLA-A*02:03 (setting [13]), with HLA-B*46:01 (setting [13]) and in the assay with HLA-A*69:01 (setting [13]) was no more than 4.70 in each case. The pKd in the assay with HLA-A*02:11 (setting [13]), in the assay with HLA-B*57:01 (setting [13]), with HLA-A*02:01 (setting [13]), in the assay with HLA-A*29:02, with HLA-B*51:01 (setting [13]) and with HLA-A*02:19 (setting [13]) was no more than 4.70 in each case. Also, the pKd in the assay with HLA-B*27:03 (setting [13]), in the assay with HLA-A*03:01 (setting [13]), with HLA-A*02:16 and with HLA-A*02:12 (setting [13]) was no more than 4.70 throughout.

The values are drawn from the Immune Epitope Database (IEDB).
